Laboratory results taken from the nanobody polyreactivity screen of Harvey et al. (2022).

Test: yeast display, Sf9 membrane polyspecificity reagent, FACS + sequencing; frameworks hold sequencing errors
In short: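 Galactose-induced (36–48 hours) yeast carrying a synthetic nanobody display library were exposed to 10% biotinylated, detergent-solubilized Sf9 membrane reagent at 4 °C for 1 hour. FACS followed streptavidin microbead enrichment, using low and high (top ~1%) gates for expression (anti-HA) and reagent binding (streptavidin). Colony PCR, MiSeq 2 × 250 sequencing and CDR-length filtering followed. Labels for polyreactivity reflect the gate of origin.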

Row | Sequence | polyreactivity (PSR sort gate)
1 | QVQLVESGGGLVQAGGSLRLSCASSGFTFRYYTMGLYRQAPGKERELVASITWRGGSTYYADSVKGRFTISRDNAKNTVYLQMNCLKPEDTAVYYCNAERPYQYYPGIYRWYYYWGQGTQVTVSS | low polyreactivity
2 | QVQLVESGGGLVQAGGSLRLSCAASGGTFFVYMGGYRQAPGNERELVADISGSGGGTYYADSVKGRFTISRDNAKNTVYLQMNSLKPEDTAVYYCATDVPTGIIRMYWGQGTQVTVSS | low polyreactivity
3 | QVQLVESGGGLVQAGGSLRLSCAASGRTFLLNAMGWYRQAPGKERELVAAISRGGSTYYADSVKGRFTISRDNAKNTVYLQMNSLKPEDTAVYYCAARFWISHTHWDAGDYWGQGTQVTVSS | low polyreactivity
4 | QVQLVESGGGLVQAGGSLRLSCAASGSTFYRNAMGWYRQAPGKEREFVADITLGGGSTYYADSVKGRFTISRDNAKNTVYLQMNSLTPEDTAVYYCAVVYWQLNYDYWGQGTQVTVSS | low polyreactivity
5 | QVQLVESGGGLVQAGGSLRLSCAASGFTFNDYAMGWYRQAPGKERELVAAISKSGSRTYYADSVKGRFTISRDNAMNTVYLQMNSLKPEDTAVYYCNALPSYYGTYDYWGQGTQVTVSS | high polyreactivity
6 | QVQLVESGGGLVQAGGSLRLSCAASGSTFDRYAMGWYRQAPGKEREFVAAITWGGGSTYYADSVKGRFTISRDNAKNTVYLQMNSLKPEDTAVYYCATRYGATFGYWGQGTQVTVSS | low polyreactivity
7 | QVQLVESGGGLVQAGGSLRLSCAASGFIFVPYAMGWYRQAPGKERELVAAISSGGSTYYADSVKGRFTISRDNAKNTVYLQMNSLKPEDTAVYYCNKRYYLYQYRYDYWGQGTQVTVSS | low polyreactivity
8 | QVQLVESGGGLVQAGGSLRLSCAASGGIFYINAMGWYRQAPGKERELVAAISRDGTITYYADSVKGRFTISRDNAKNTVYLQMNSLKPEDTAVYYCAADASIQSWYSIYDYWGQGTQVTVSS | high polyreactivity
9 | QVQHVESGGGLVQARGSLRLSCAASGSTIKHYGMGWYRHAPGKERELVAAITSGGRTYYADSVKGRFTISRDNAKNTVYLQMNSLKQDDSAGYYCAALRVQQVKSYYYWGQGTQVTVSS | high polyreactivity
10 | QVQHVESCGGLVQAGGSLRLSCDASGSTFYYYAMGWSRQGPGKERELVAAISLGGGSTYYADSVKGRFTISRDNAKNTVYLHMNSLKPEDSAVYYCAARRVGGGFYTWRNPAYEYWGQGTQVTVSS | high polyreactivity
11 | QVKLVESAGCLVQAGGSLRLSCAASGRIFRRYAMGWYRQSTGKESELVAAISSRGGLTYYADSVKGRFTISRDNAKNTVYLLMNSLKTEDTAVYYCAAYYFVTETYGPYEYWGQGTQVTVSS | high polyreactivity
12 | QLQLVESGGGLVQAGGSLRLSCAASGSTFRYNAMGWYRQAPGKEREFVAAITSGGGSTYYADSVKGRFTISRDNAKNTVYLQMNSLKPEDTAVYYCAKYTSSRRNTWYYYWGQGTQVTVSS | high polyreactivity
13 | QVQLVESGGGLVQAGGSLRLSCAASGSTFFTNAMGWYRQAPGKERELVAAITINDGSTFYADSVKGRFTITRDNAKNTVYLQMNSLKPEDTAVYYCNADGVDLYDYWGQGTQVTVSS | low polyreactivity
14 | QVQLVESGGGLVQAGGSLRLSCAASGSIFYYNAMGWYRQAPGKERELVAAISSDGGTYYADSVKGRFTISRDNAKNTVYLQMNSLKPEDTAVYYCNAEVFWWDQWYDYWGQGTQVTVSS | high polyreactivity
15 | QVQLVESGGGLVQAGGSLRLSCSASGLTFTKYAMGWYRQAPGKEREFVATITSGGSTNYADSVKGRFTISRDNAKNTVYLQMNSLKPEDTAVYYCNRDNYKWPYWEFDYWGQGTQVTVSS | high polyreactivity
16 | QVQLVESGGGLVQAGGSLRLSCAASGFTSNYYAMGWYRQAPGKERELVAAITTGGSTHYADSVKGRFTISRDNAKNTVYLQMNSLKPEDTAVYYCAAGTNRQQQRYFHHGGYYQYNYWGQGTQVTVSS | low polyreactivity
17 | QVQLVESGGGLVQAGGSLRLSCAASGRIFGTNAMGWYRQAPGKERELVAAISRSGGSTYYADSVKGRFTISRDNSKNTVYLQMNSLKPEDTAVYYCATDGRHTYYYWGQGTQVTVSS | high polyreactivity
18 | QVQLVESGGGLVQAGGSLRLSCAASGFTFVYNAMGWYRQAPGKERELVAAITFSGGSTYYADSVNGRFTISRDNAKNTVYLQMNSLKPEDTAVYYCATDYPGVFVLRRSHPYDYWGQGTQVTVSS | low polyreactivity
19 | QVQLVESGGGLVQAGGSLRLSCAASGITFRYYTMGWYRQAPGKERELVAAITTSGTGTYYADSVKGRFTISRDNAKNTVYLQMNSLNPEYSAVYYCATYPHIAVLSRYDYWGQGTQVTVSS | low polyreactivity
20 | QVQLVESGGGIVQAGGSLRLSCAASGRILSRYAMGWYRQAPGKESDLVADISSGGRTHYADSVKGRFTISRDNAKNTVYFQMNSLKPEDSAVYYCAKDYTPYSRRLNSGGYYYWGQGTQVTVSS | high polyreactivity
21 | QVQLVDSGGGIVQAGGSLRLSCAASGRIFKLYAMGRYRQAPGKERELVAAISKSGGNTYADSVKGRFTISRDNAKNSVYLQMNSLKPEDTAVYYCAATVQSTSDPFDYWGQGTQVTVSS | low polyreactivity
22 | QVHLVESGGGLVQAGGSLRLSCAASGRTFPSYAMGWYRQAPGKERELVAAITRGGSTYYADSVKGRFTISRDNAKNTVYLQMNSLKPEDTAVYYCATRYGRARAYYYWGQGTQVTVSS | high polyreactivity

Row | Sequence | polyreactivity (PSR sort gate)
23 | QVQLVESGGGLVQAGGSLRLSCAASGSIFRYNTMGWYRQAPGKERELVASIRIGGSTFYADSVKGRFTISRDNAKNTVYLQMNSLKPEDTAVYYCAVRPYRSAGGSVTRGAYYYWGQGTQVTVSS | high polyreactivity
24 | QVQLEESGGGLVQAGGSLRLSCAASGINFQGNARGWYRQAPGKERELVASITAGGDTTYYADSVKGRFTISRDNAKNTFYLQLNSVKPEDSEVYDCAVYSWLDADDSYPDSILVDYWGQGTQVTVSS | low polyreactivity
25 | QVQLVESGGGLVQAGGSLRLSCAASGFTFLYNAMGWYRQAPGKERELVASIRTGTGTYYADSVKGRFTISRDNAKNTVYLQMNSLKPEDTAVYYCAAENFYPYTYYASDYWGQGTQVTVSS | high polyreactivity
26 | QVQLVESGGGLVQAGGSLRLSCAASGFTSSQYAMGWYRQAPGKERELVAAITSSGSSTYYADSVKGRFTISRDNAKNTVYLQMNSLKPEDTAVYYCNTDAYHRYPGSVWYYYWGQGTQVTVSS | high polyreactivity
27 | QVQLVESGGGLVQAGGSLRLSCAASGRIFYPNAMGWYRQAPGKERELVASISRGGPTSYADSVKGRFTISRDNAKNTVYLQINSLKPEDTAVYDCAADVAWYRYRSYYWGQGTQVTVSS | high polyreactivity
28 | QVQLVESGGGLVQAGGSLRLSCAASGSTFGANPMGWYRQAPGKEREFVAAISGSGTTTYYADSVKGRFTISRDNAKNTVYLQMNSLKTEDTAVYYCAKTRKAHWLEYWGQGTQVTVSS | low polyreactivity
29 | QLQLVESGGGLVQAGGSLRLSCASSGIIFRWYTIGWSRQAPGKERELDAAITGRGGSTFYADSVKGRFTISRDNAKNTVYVQMNSLKPEDTAFYYCAAQYSYPTPYRTYEYDYWGQGTQVTVSS | high polyreactivity
30 | QVQLVESGGGLVQAGGSLRLSCAASGRTLGHNAMGWYRPAPGKERELVAAITSRGGTTYADSVKGRFTISRDNAKKTVYLQMNSLKPEETAVYYCAARVSGSRKYYYWGQGTQVTVSS | high polyreactivity
31 | QVQLVESRSGIVQAGRSLRLSCAASGSIFGSYVMGWYRQAPGKERELVAAITVRTGTTYYADSVKGRFTISLDNAKNTVYLQMKRLKPEDTAVYYCDSRYGPKYGYWGQGNQVTVSS | high polyreactivity
32 | QVQLVESGGGLVQAGGSLRLSCAASGFIFHGYALGWYRQAPGKERELVAAITRRGGRTDYADSVKGRFTISRDNAKNTVYLQMNSLKPEDTAVYYCAKRYTATEWHGERDYWGQGTQVTVSS | high polyreactivity
33 | QVQLVESGGGLVQAGGSLRLSCAASGRIFNYNAMGWYRQAPGKERELVAAITRSTGNTYYADSVKGRFTISRDNAKNTVYLQMNSLKPEDTAVYYCAAAYAYWRKYDYWGQGTQVTVSS | high polyreactivity
34 | QVQLVESGGGLVQAGGSLRLSCAASGRTFRYYAMGWYIQAPGKERELVAAISWRGGSTYYAYSVKGRFTLSRDYAKNTVYLQINSLKPEDTAVYYCAAGILFGHYDYWGQATQVTVSS | high polyreactivity
35 | QVQLVESGGGLVQAGGSLRLSCAASGSIFSYYAMGWYRQAPGKEREFVAAITKSGGSTYYADSVKGRFTISRDNAKNTVYLQMNSLKPEDTAVYYCAVRYKLYYYGYDYWGQGTQVTVSS | low polyreactivity
36 | QVQLVESGGGLVQAGGSLRLSCAASGNIFYVYVMGWYRQAPGKERELVASITSGASTYYADSVKGRFTISRDNAKNTVYFQMNSLKPEDTAVYYCAAEALGGAGDYSTLYIYDYWGQGTQVTVSS | low polyreactivity
37 | QVQLVESGGGLVQAGGSLRLSCAASGSIFRFYAMGWYRQAPGKERELVAGISRRGGTTYYADSVKGRFTISRDNAKNTVYLQMNSLKPEDTAVYYCAKRSFGYKSRPAFNYWGQGTQVTVSS | high polyreactivity
38 | QVQLVESGGGLVQAGGSLRLSCAASGFIFYYYAMGWYRQAPGKERELVAGIDKTGGSTYYADSVKGRFTISRDNAKNPVYLQMNSLKPDDTAVYYCNAPYYRGGKDGYWGQGTQVTVSS | high polyreactivity
39 | QVQLVESGGGIVQAGGSLRLICAASGITFTVYAMGWDRTAPWKARELVAASCSSGSTTYADSVKGRFTFSRDNAKNTVYLQMNSVKPQDPAVYYCAAEGYYRFSTAYFRKKYEYWGQGTQVTVSS | low polyreactivity
40 | QVQLVESGGGLVQAGGSLRLSCAAYGITFPSYVMGWYRQAPGKERELVAAISWRGGSTYYADSVKGRFTISRDNAKNTVYLQMNSLKPEDTAVYYCAAEYLVWYTFYPKYDYWGQGTQVTVSS | high polyreactivity
41 | QVQLVESGGGLVQAGGSLRLSCAASGRIFVVNAMGWYRQAPGKERELVAAISRSGGSTYYADSVKGRFTISRDNAKNTVYLQMNSLKPEETAVYFCAAVSWIYSFSAMSIYDYWGQGTQVTVSS | high polyreactivity
42 | QVQLVESGGGLVQAGGSLRLSCAASGIIFAYNAMGWYRQAPGKERELVAAISVIAGTTYYADSVKGRFTISRDNAKNTVYLQMNSLKPEDTAVYYCAVDSVQYGGGYERLHELYYWGQGTQVTVSS | low polyreactivity
43 | QVQLVESGGGLFQAGGILRLSCAASGRTFHRNAMGWYRLAPGKERELVAAITGDGRTNYADSVKGRFTISRDNAKNTVYLQMNSLKPEDTAVYYCAARFSYRSYDYWGQGSQVTVSS | low polyreactivity
